Test results taken from publication PMC11214832.

Target: SARS-CoV-2 Nsp15 catalytically inactive mutant H234A (SARS-CoV-2)
Assay: cryo-EM structure

SARS-CoV-2 Nsp15 catalytically inactive mutant H234A (enzyme)
stoichiometry N: 6
